“Also recorded” adds a separate entry of the source.
Experiments:
[1] = target: T1, JAK2 WT peptide (JAK2 autophosphorylation site 1001LPQDKEYYKVKEP) (Homo sapiens, UniProt O60674); assay: ELISA binding of biotinylated JAK2 WT peptide to solid-phase peptides
T1 construct: made in house; host or cells: chemical synthesis (Fmoc)
Experimental: (§1) Binding assays: For ELISA binding assays Tkip and other peptides to be tested were bound to 96-well plates in 0.1 M carbonate binding buffer (pH 9.6) at a final concentration of 3 μg/well (50 μl). Wells were then washed three times with wash buffer containing 0.9% NaCl and 0.05% tween-20 in PBS and blocked with 2% gelatin and 0.05% tween-20 in PBS for 1 h at room temperature. Wells were then washed three times with wash buffer and incubated with various concentrations of biotinylated JAK2 WT peptide and biotinylated P-JAK2 WT peptide for 1 h at room temperature in blocking buffer. Following incubation, wells were washed five times with wash buffer to remove any unbound biotinylated peptides. Bound biotinylated peptides were detected by incubation with a 1:500 dilution of NEUTRAVIDIN biotin binding-protein conjugated with horseradish peroxidase (Molecular Probes, Eugene, Oreg.) in blocking buffer for 1 h at room temperature. Wells were then washed five times with wash buffer and developed with a solution of o-phenylenediamine (OPD) in stable peroxidase buffer (Pierce, Rockford, Ill.). The assay was stopped with the addition of 2 M H2SO4 (50 μl) to each well. Absorbance was measured using a 450 microplate reader (Bio-rad, Hercules, Calif.) at 490 nm. Control experiments were carried out as described above in the absence of immobilized peptides.

recombinant human JAK2 = target: T2, recombinant human JAK2 (Homo sapiens, UniProt O60674); assay: In vitro JAK2 kinase assay (32P, SDS-PAGE, autoradiography); assay type: biochemical; conditions: peptide at 50 μM
T2 construct: purchased Upstate Biotechnology, Lake Placid, N.Y
Experimental: Determination of JAK2 autophosphorylation activity was performed in reaction mixtures containing recombinant human JAK2 immobilized on agarose beads (Upstate Biotechnology, Lake Placid, N.Y.), 1 μCi/μl of [^32P]γ-ATP (Amersham Biosciences, Piscataway, N.J.), and either Tkip or JAK 2 WT peptide incubated in kinase buffer (10 mM HEPES [pH 7.4], 50 mM sodium chloride, 0.1 mM sodium orthovanadate, 5 mM magnesium chloride, 5 mM manganese chloride). JAK2 kinase assays were performed in 35 μL reaction volumes containing 10.5 μL Tkip, 20 μL JAK2 agarose beads, 1 μL sIFNGR-1, and 3.5 μL [^32P]γ-ATP incubated at 30° C. for 30 min with intermittent agitation. […] EGFR, VEGFR, and JAK2 kinase reactions were terminated with the addition of 5 μl 6×SDS sample buffer (0.5 M Tris-HCl [pH 6.8], 36% glycerol, 10% SDS, 9.3% DTT, 0.012% bromophenol blue). Incubation of JAK2 agarose beads in SDS sample buffer (100° C.) was designed to elute bound proteins from the agarose beads. The reaction mixtures were separated on a 10% SDS polyacrilamide gel. Autoradiography was used to determine phosphorylation activity.

c-src = target: T3, c-src (Homo sapiens, UniProt P12931); assay: Src kinase assay with substrate peptide (P81 discs); assay type: biochemical; conditions: peptide at 50 μM; FIG. 2C
T3 construct: purchased Upstate Biotechnology, Lake Placid, N.Y
Experimental: (§2) Src kinase activity was performed with a Src substrate peptide (KVEKIGEGTYGVVYK) (SEQ ID NO. 73) using a Src kinase assay kit according to the manufacturer's specifications (Upstate Biotechnology, Lake Placid, N.Y.) according to the manufacturer's specifications. Briefly, Src substrate peptide was incubated in Src kinase buffer (100 mM Tris-HCl [pH 7.2], 125 mM MgCl2, 25 mM MnCl2, 2 mM EGTA, 0.02 mM Na3VO4, and 2 mM dithioreitol), 5 μCi of [^32P]γ-ATP (75 mM MnCl2, 500 μM ATP), recombinant human Src (Upstate Biotechnology, Lake Placid, N.Y.), and Tkip, JAK2 WT peptide, or in the absence of peptide for 10 min at 30° C. Reaction mixtures were spotted on P81 phosphocellulose discs (supplied with kit) to bind phosphorylated Src substrate peptide, washed three times for 5 min with 0.75% phosphoric acid, washed twice with acetone for 1 min, and placed in vials to which 4 ml of ScintiVerse® (Fisher, Pittsburgh, Pa.) was added. The phosphocellulose discs were analyzed using a liquid scintillation counter to measure ^32P-labeled proteins. For comparison with Src, JAK2 was also assayed using the same procedure. The assay was setup as described above for the Src kinase assay. However, reactions were incubated in the presence of 2 mM dithioreitol in the buffer to release JAK2 from the agarose beads. Following the appropriate incubation period reactions were gently centrifuged. […]

VEGFR = target: T4, VEGFR (Homo sapiens, UniProt P17948); assay: In vitro VEGFR autophosphorylation kinase assay; assay type: biochemical; conditions: peptide at 50 μM; FIG. 2B
T4 construct: purchased Calbiochem, San Diego, Calif
Experimental: (§3) In vitro Kinase Assays: Autophosphorylation activity of EGFR and VEGFR-1 was measured in a reaction mixture containing kinase buffer (20 mM Tris-HCl [pH 7.5], 2 mM dithioreitol, 50 mM potassium chloride, 0.3 mM sodium orthovanadate, 5 mM magnesium chloride, 10 mM glycerophosphate, 2 mM EGTA, […] manganese chloride), Tkip, substrates, and 5 μCi of [^32P]γ-ATP (specific activity 6000 Ci/mmol; 1 mCi=37 Mbq) (Amersham Biosciences, Piscataway, N.J.). EGFR and VEGFR in vitro kinase assays were carried out in 22.5 μL reaction volumes containing 10 μL Tkip, 2.5 μL substrates, and 10 μL [^32P]γ-ATP incubated at 30° C. for 10 min. EGFR (supplied precomplexed with EGF) was obtained from Upstate Biotechnology (Lake Placid, N.Y.). VEGFR and VEGF were obtained from Calbiochem (San Diego, Calif.) and Peprotech (Rocky Hill, N.J.), respectively.
(§4) Determination of JAK2 autophosphorylation activity was performed in reaction mixtures containing recombinant human JAK2 immobilized on agarose beads (Upstate Biotechnology, Lake Placid, N.Y.), 1 μCi/μl of [^32P]γ-ATP (Amersham Biosciences, Piscataway, N.J.), and either Tkip or JAK 2 WT peptide incubated in kinase buffer (10 mM HEPES [pH 7.4], 50 mM sodium chloride, 0.1 mM sodium orthovanadate, 5 mM magnesium chloride, 5 mM manganese chloride). […]

JAK2/IFNGR-1 = target: T5, JAK2/IFNGR-1 (Homo sapiens, UniProt O60674); assay: JAK2 kinase assay processed on P81 phosphocellulose discs (32P incorporation); assay type: biochemical; conditions: peptide at 50 μM; FIG. 2D
T5 construct: purchased Upstate Biotechnology, Lake Placid, N.Y
Experimental: as §2

[2] = target: T6, p-JAK2 WT peptide (phosphorylated at 1007Y) (Homo sapiens, UniProt O60674); assay: Solid phase binding of biotinylated phosphorylated JAK2 WT peptide to immobilized Tkip; conditions: FIG. 4
T6 construct: made in house; host or cells: chemical synthesis (Fmoc)
Experimental: as §1

[3] = test system: experimental allergic encephalomyelitis; assay: Experimental allergic encephalomyelitis (EAE) in MBP-immunized NZW mice; assay type: in vivo
Experimental: NZW mice were injected intraperitoneally with PBS or Tkip (63 μg/mouse) every other day starting the day of immunization with myelin basic protein (MBP) for induction of EAE. Mice were followed daily for signs of EAE, and mean severity of paralysis for each group was graded based on the following scale: 1, loss of tail tone, 2, hind leg weakness, 3, paraparesis, 4, paraplegia, 5, moribund, death. […] All mice in the control group had disease (disease incidence=4/4), while one mouse in the Tkip group had disease (disease incidence=1/5).
NZW mice were immunized with myelin basic protein (MBP) (300 ug) emulsified in complete Freund's adjuvant for the induction of experimental allergic encephalomyelitis (EAE). Tkip peptide (63 μg/mouse) was administered to mice every other day starting the day of immunization. Phosphate buffered saline (PBS) was used as the vehicle of transfer and as the control agent for the treatment of the control group. Mice were followed daily for signs of EAE and mean severity of paralysis for each group was graded based on the scale presented in the legend of FIG. 9. […] Furthermore, the mean severity of disease for the control group (2.1) was twice as high as that of the Tkip group (0.8) at its peak. The time of onset of disease for the control group and Tkip-treated group was similar (24 days post immnunization). Thus, treatment of MBP-immunized mice with Tkip peptide protects them from the autoimmune disease, EAE.

EGFR = target: T7, EGFR (Homo sapiens, UniProt P00533); assay: In vitro EGFR autophosphorylation kinase assay; assay type: biochemical; conditions: peptide at 50 μM; FIG. 2E
T7 construct: human EGFR isolated from A431 cells; purchased Upstate Biotechnology, Lake Placid, N.Y; host or cells: A431 cells (endogenous receptor, isolated)
Experimental: as §3, §4

T2 sequence (O60674 whole entry): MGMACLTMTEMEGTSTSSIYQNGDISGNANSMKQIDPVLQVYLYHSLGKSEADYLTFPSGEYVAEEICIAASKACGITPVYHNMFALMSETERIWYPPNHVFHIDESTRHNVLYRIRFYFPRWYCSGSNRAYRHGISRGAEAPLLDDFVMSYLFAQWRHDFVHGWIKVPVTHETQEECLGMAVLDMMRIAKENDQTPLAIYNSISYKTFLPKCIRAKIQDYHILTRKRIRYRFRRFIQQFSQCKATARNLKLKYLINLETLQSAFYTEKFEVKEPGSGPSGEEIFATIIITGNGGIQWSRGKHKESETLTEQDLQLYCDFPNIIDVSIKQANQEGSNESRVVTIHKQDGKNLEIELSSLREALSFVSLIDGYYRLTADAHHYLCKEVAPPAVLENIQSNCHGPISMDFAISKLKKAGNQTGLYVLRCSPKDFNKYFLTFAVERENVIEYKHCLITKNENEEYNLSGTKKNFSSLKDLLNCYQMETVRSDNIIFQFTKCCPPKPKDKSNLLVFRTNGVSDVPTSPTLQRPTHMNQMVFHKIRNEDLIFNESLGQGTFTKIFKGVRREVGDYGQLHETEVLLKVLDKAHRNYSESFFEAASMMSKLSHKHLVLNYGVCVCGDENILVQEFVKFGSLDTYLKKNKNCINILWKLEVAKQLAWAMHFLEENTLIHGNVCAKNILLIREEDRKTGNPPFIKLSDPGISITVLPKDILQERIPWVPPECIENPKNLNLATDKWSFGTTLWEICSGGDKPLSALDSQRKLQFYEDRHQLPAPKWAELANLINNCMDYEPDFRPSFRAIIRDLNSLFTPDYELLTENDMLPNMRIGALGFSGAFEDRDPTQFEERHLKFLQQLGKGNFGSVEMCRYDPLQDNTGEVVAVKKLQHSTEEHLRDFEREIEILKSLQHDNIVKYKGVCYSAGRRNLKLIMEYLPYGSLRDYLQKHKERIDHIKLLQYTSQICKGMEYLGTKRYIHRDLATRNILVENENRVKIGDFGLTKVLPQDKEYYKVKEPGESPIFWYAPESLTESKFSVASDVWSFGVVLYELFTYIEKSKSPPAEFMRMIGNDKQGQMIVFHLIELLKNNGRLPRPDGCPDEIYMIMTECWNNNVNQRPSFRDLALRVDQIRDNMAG
T5 sequence (O60674 whole entry): as above
T4 sequence (P17948 27-1338): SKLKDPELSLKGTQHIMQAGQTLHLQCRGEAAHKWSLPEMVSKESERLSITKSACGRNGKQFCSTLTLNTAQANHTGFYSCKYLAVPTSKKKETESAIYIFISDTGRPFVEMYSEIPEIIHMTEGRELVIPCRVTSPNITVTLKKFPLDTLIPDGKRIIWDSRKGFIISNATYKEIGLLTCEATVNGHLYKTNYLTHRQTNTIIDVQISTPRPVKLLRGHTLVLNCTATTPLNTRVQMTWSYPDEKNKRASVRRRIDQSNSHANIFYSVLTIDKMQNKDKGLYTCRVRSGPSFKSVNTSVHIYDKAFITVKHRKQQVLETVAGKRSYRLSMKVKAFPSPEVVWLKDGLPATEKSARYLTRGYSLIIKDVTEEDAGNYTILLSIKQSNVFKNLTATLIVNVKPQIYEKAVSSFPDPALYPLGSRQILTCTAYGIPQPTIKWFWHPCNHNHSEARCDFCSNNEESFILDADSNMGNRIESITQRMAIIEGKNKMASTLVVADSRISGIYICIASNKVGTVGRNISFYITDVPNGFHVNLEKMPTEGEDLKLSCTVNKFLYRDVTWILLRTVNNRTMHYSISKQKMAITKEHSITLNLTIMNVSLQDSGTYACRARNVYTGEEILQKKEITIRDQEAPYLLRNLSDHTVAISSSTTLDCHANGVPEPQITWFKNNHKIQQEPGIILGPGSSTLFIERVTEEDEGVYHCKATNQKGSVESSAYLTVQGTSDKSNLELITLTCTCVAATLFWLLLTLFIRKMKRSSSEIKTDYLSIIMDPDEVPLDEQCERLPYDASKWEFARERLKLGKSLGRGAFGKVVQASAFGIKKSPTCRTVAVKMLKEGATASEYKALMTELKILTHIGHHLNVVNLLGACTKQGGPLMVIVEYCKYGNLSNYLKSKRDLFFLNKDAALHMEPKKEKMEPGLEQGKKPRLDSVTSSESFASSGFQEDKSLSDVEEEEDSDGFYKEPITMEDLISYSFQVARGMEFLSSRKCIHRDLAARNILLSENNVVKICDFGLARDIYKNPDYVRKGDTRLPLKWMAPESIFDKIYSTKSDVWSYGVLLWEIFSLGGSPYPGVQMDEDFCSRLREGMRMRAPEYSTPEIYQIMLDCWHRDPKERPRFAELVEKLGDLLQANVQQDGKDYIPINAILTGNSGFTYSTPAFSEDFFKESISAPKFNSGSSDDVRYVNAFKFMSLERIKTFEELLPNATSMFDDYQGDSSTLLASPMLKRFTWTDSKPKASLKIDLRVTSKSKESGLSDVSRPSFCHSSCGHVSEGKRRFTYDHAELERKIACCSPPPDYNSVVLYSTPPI

WLVFFVIFYFFR (amino acid sequence of a peptide that can be used according to the present invention) [Tkip]
binding of biotinylated JAK2 WT peptide to solid-phase peptide ([1]; FIG. 1A, ELISA, peptides coated on 96-well plates): bound only to Tkip peptide in a dose-dependent manner | binding of Tkip to unphosphorylated JAK2 WT ([1]; FIG. 4, immobilized Tkip): bound both JAK2 WT and p-JAK2 WT in a dose-dependent manner | inhibition of JAK2 autophosphorylation (recombinant human JAK2): completely inhibited; also recorded: also inhibited | inhibition of JAK2 phosphorylation of IFNGR-1 (recombinant human JAK2): completely inhibited; also recorded: also inhibited | inhibition of c-src phosphorylation of a protein substrate (c-src): failed to inhibit | inhibition of VEGFR autophosphorylation (VEGFR): did not inhibit | inhibition of 32P incorporation into JAK2/IFNGR-1 (JAK2/IFNGR-1): greater than 95% | fifty percent endpoint concentration, fold lower for p-JAK2 WT binding versus unphosphorylated JAK2 WT binding [2]: approximately 9 fold | binding of Tkip to p-JAK2 WT ([2]; immobilized Tkip): binding was most efficient to p-JAK2 WT | time of onset of disease ([3]; 63 μg/mouse every other day): 24 days post immnunization | mean severity of disease (paralysis scale 1-5) ([3]; 63 μg/mouse every other day, at its peak): 0.8 | incidence of disease (EAE) ([3]; 63 μg/mouse intraperitoneally every other day from day of immunization): 1/5 | inhibition of EGFR autophosphorylation (EGFR): completely inhibited

— patent US7189694B2, “Inhibitors of autophosphorylation protein kinases” (University of Florida Research Foundation, Inc., priority 2003, dated 2007)
